B1: NRC3_wobSeed66_DR2_T16G_o1 (dsDNA)
DNA 1: GCAATACAGGGTCACGAGGCCAGAGTAGGTACGAATGCGATTGACAGCGTAGAATGAAGG
DNA 2: CCTTCATTCTACGCTGTCAATCGCATTCGTACCTACTCTGGCCTCGTGACCCTGTATTGC
B2: NRC3_random_hg19_241_o1 (dsDNA)
DNA 1: GCTGTAACGTGGGCTTCACTGTCGGGTCCAGCCCACGCGATTGACAGCGTAGAATGAAGG
DNA 2: CCTTCATTCTACGCTGTCAATCGCGTGGGCTGGACCCGACAGTGAAGCCCACGTTACAGC
B3: NRC3_wobSeed71_DR2_G12T_o1 (dsDNA)
DNA 1: GCCGAACGAGGTCATGAGTTGATAGCAAATGCCGATGCGATTGACAGCGTAGAATGAAGG
DNA 2: CCTTCATTCTACGCTGTCAATCGCATCGGCATTTGCTATCAACTCATGACCTCGTTCGGC
B4: NRC3_wobSeed14_DR0_T23G_o1 (dsDNA)
DNA 1: GCCCTGCTAGGTCATGGTCAGCGAATCTACAGTATGGCGATTGACAGCGTAGAATGAAGG
DNA 2: CCTTCATTCTACGCTGTCAATCGCCATACTGTAGATTCGCTGACCATGACCTAGCAGGGC
B5: NRC3_wobSeed136_DR5_G11T_o1 (dsDNA)
DNA 1: GCTAGCCTAGTTCATTCAGGGGCCAGTATAGAAAGCGCGATTGACAGCGTAGAATGAAGG
DNA 2: CCTTCATTCTACGCTGTCAATCGCGCTTTCTATACTGGCCCCTGAATGAACTAGGCTAGC
B6: NRC3_wobSeed39_DR1_G4C_o1 (dsDNA)
DNA 1: GCCCAACTAGGTCAAAGGACAGTGAAAGGCGACGTAGCGATTGACAGCGTAGAATGAAGG
DNA 2: CCTTCATTCTACGCTGTCAATCGCTACGTCGCCTTTCACTGTCCTTTGACCTAGTTGGGC
B7: NRC3_random_hg19_149_o1 (dsDNA)
DNA 1: GCATGAAACCATGCTCGAGTGTGTGTGTGTGTGTATGCGATTGACAGCGTAGAATGAAGG
DNA 2: CCTTCATTCTACGCTGTCAATCGCATACACACACACACACACTCGAGCATGGTTTCATGC
B8: NRC3_random_hg19_315_o1 (dsDNA)
DNA 1: GCAGTCACACCTAACTGCAGGGAAGTCTATGAAATGGCGATTGACAGCGTAGAATGAAGG
DNA 2: CCTTCATTCTACGCTGTCAATCGCCATTTCATAGACTTCCCTGCAGTTAGGTGTGACTGC
B9: NRC3_random_hg19_374_o1 (dsDNA)
DNA 1: GCTAGACTGGCGACTGCTTGATTCATGGCTGAGTCTGCGATTGACAGCGTAGAATGAAGG
DNA 2: CCTTCATTCTACGCTGTCAATCGCAGACTCAGCCATGAATCAAGCAGTCGCCAGTCTAGC
B10: NRC3_wobSeed136_DR5_T8G_o1 (dsDNA)
DNA 1: B5 DNA 1 with T8G, T11G
DNA 2: B5 DNA 2 with A50C, A53C
B11: NRC3_wobSeed85_DR3_C6G_o1 (dsDNA)
DNA 1: GCCGTGCAAGGTCAGAGAGGTCAGTGAATGCCGAGTGCGATTGACAGCGTAGAATGAAGG
DNA 2: CCTTCATTCTACGCTGTCAATCGCACTCGGCATTCACTGACCTCTCTGACCTTGCACGGC
B12: NRC3_wobSeed141_DR5_G15C_o1 (dsDNA)
DNA 1: GCAGTCAAAGTTCACGACGAGGTAACGTAAAGCACGGCGATTGACAGCGTAGAATGAAGG
DNA 2: CCTTCATTCTACGCTGTCAATCGCCGTGCTTTACGTTACCTCGTCGTGAACTTTGACTGC
B13: NRC3_wobSeed51_DR2_T5C_o1 (dsDNA)
DNA 1: GCCCCCGGAGGACAGAAGGTCAGAGCTGTCCGCTTTGCGATTGACAGCGTAGAATGAAGG
DNA 2: CCTTCATTCTACGCTGTCAATCGCAAAGCGGACAGCTCTGACCTTCTGTCCTCCGGGGGC
B14: NRC3_wobSeed49_DR2_A6G_o1 (dsDNA)
DNA 1: GCCAAGCTAGGTCAAGAGGTCAAAGTCCGCTTCCCGGCGATTGACAGCGTAGAATGAAGG
DNA 2: CCTTCATTCTACGCTGTCAATCGCCGGGAAGCGGACTTTGACCTCTTGACCTAGCTTGGC
B15: NRC3_wobSeed97_DR4_A26C_o1 (dsDNA)
DNA 1: GCCAAACTAGGTCACGAAAGGTCAACGTCGAATGACGCGATTGACAGCGTAGAATGAAGG
DNA 2: CCTTCATTCTACGCTGTCAATCGCGTCATTCGACGTTGACCTTTCGTGACCTAGTTTGGC
B16: NRC3_wobSeed73_DR3_A25C_o1 (dsDNA)
DNA 1: GCCAAACTAGGTCACAGAGGTCAACGTCCGTGCGTAGCGATTGACAGCGTAGAATGAAGG
DNA 2: CCTTCATTCTACGCTGTCAATCGCTACGCACGGACGTTGACCTCTGTGACCTAGTTTGGC
B17: NRC3_wobSeed61_DR2_C7T_o1 (dsDNA)
DNA 1: GCCGTCTAAGGTCAGCAGGTCAGTGAAAGCGACGTGGCGATTGACAGCGTAGAATGAAGG
DNA 2: CCTTCATTCTACGCTGTCAATCGCCACGTCGCTTTCACTGACCTGCTGACCTTAGACGGC
B18: NRC3_wobSeed61_DR2_G15A_o1 (dsDNA)
DNA 1: B17 DNA 1 with T7C, G15A
DNA 2: B17 DNA 2 with C46T, A54G
B19: NRC3_wobSeed61_DR2_G23C_o1 (dsDNA)
DNA 1: B17 DNA 1 with T7C, G23C
DNA 2: B17 DNA 2 with C38G, A54G
B20: NRC3_wobSeed109_DR4_C6T_o1 (dsDNA)
DNA 1: GCCGTTCAAGGTCATAGGAGGTCAGTGAAGACAGATGCGATTGACAGCGTAGAATGAAGG
DNA 2: CCTTCATTCTACGCTGTCAATCGCATCTGTCTTCACTGACCTCCTATGACCTTGAACGGC
B21: NRC3_wobSeed133_DR5_T16C_o1 (dsDNA)
DNA 1: GCCGTCCAAGGTCAACGCTAGGTCAGTGAAAGCATTGCGATTGACAGCGTAGAATGAAGG
DNA 2: CCTTCATTCTACGCTGTCAATCGCAATGCTTTCACTGACCTAGCGTTGACCTTGGACGGC
B22: NRC3_wobSeed117_DR4_A29T_o1 (dsDNA)
DNA 1: GCCGTCAAAGTTCAACTAAGGTAACGTATAGCACGCGCGATTGACAGCGTAGAATGAAGG
DNA 2: CCTTCATTCTACGCTGTCAATCGCGCGTGCTATACGTTACCTTAGTTGAACTTTGACGGC
B23: NRC3_wobSeed117_DR4_G21T_o1 (dsDNA)
DNA 1: B22 DNA 1 with G21T, T29A
DNA 2: B22 DNA 2 with A32T, C40A
B24: NRC3_wobSeed21_DR0_G17T_o1 (dsDNA)
DNA 1: GCCGTCAAAGTTCAAGTTAACGTAACAGAAAGCAGCGCGATTGACAGCGTAGAATGAAGG
DNA 2: CCTTCATTCTACGCTGTCAATCGCGCTGCTTTCTGTTACGTTAACTTGAACTTTGACGGC
B25: NRC3_wobSeed21_DR0_A19T_o1 (dsDNA)
DNA 1: B24 DNA 1 with T17G, A19T
DNA 2: B24 DNA 2 with T42A, A44C
B26: NRC3_wobSeed134_DR5_T8A_o1 (dsDNA)
DNA 1: GCGCTGCAAGGTCAACTGATGGTCAGCTAAAGCTCGGCGATTGACAGCGTAGAATGAAGG
DNA 2: CCTTCATTCTACGCTGTCAATCGCCGAGCTTTAGCTGACCATCAGTTGACCTTGCAGCGC
B27: NRC3_wobSeed13_DR0_C7T_o1 (dsDNA)
DNA 1: GCCGTCTAAGGTCAAGGTCAGTGAAAGAGACTCGAAGCGATTGACAGCGTAGAATGAAGG
DNA 2: CCTTCATTCTACGCTGTCAATCGCTTCGAGTCTCTTTCACTGACCTTGACCTTAGACGGC
B28: NRC3_wobSeed69_DR2_T16G_o1 (dsDNA)
DNA 1: GCAGTCAAAGTTCACGAGGTAACGTAAGATTCAGCTGCGATTGACAGCGTAGAATGAAGG
DNA 2: CCTTCATTCTACGCTGTCAATCGCAGCTGAATCTTACGTTACCTCGTGAACTTTGACTGC

Residue numbers refer to the chain shown, from its start.

FXR:RXRa, sequence (Q96RI1 whole entry, chain 1 of 2): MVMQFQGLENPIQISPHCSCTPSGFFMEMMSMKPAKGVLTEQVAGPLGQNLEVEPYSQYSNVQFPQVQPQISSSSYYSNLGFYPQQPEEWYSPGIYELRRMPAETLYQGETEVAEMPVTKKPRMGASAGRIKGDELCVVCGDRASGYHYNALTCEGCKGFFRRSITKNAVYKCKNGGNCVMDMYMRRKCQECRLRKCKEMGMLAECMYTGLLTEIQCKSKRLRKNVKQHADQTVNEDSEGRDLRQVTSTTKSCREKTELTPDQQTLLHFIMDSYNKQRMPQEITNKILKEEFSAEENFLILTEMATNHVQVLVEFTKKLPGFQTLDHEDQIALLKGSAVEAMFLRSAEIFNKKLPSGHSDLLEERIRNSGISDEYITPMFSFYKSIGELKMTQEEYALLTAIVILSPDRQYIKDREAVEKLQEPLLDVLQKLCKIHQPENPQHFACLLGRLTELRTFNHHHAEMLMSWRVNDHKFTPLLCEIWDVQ
FXR:RXRa, sequence (P19793 whole entry, chain 2 of 2): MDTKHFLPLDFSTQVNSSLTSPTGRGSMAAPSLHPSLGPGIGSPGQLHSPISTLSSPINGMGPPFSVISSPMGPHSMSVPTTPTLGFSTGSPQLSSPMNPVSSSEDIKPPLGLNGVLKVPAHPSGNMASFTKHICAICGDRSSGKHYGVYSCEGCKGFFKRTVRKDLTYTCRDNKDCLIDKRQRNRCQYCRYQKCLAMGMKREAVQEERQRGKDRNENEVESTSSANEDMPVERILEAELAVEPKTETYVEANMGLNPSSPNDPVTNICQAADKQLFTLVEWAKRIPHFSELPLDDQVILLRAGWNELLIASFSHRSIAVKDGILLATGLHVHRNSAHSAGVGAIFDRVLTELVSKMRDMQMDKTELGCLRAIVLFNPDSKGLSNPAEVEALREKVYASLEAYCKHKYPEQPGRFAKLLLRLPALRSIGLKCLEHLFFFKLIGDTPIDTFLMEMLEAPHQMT
RARg:RXRa, sequence (P13631 whole entry, chain 1 of 2): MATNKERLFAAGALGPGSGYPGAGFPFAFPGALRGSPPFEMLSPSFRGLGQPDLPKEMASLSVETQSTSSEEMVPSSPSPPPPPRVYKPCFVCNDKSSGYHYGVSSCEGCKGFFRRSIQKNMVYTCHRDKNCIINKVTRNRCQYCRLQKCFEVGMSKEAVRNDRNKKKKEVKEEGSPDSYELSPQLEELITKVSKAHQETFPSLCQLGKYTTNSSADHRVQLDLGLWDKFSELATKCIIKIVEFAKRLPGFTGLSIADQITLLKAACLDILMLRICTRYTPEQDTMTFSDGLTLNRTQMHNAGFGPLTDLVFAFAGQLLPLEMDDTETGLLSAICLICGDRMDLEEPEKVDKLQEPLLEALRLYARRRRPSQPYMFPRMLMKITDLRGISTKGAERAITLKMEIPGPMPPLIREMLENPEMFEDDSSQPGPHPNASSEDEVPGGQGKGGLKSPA
RARg:RXRa, sequence (P19793 whole entry, chain 2 of 2): as the sequence (P19793 whole entry, chain 2 of 2) above

In the first data set the target is PPARa:RXRa (Homo sapiens, UniProt Q07869;P19793 full;full). In words: no ligand; PBM; 270 nM : 90 nM RXRa; PBS pH 7.4, 2% milk, 0.02% Triton X-100, 1 mM DTT, BSA, 0.4 mg/ml salmon testes DNA. Conditions: tags: GST kept;His cleaved; copies: 1;1; label: surface-attached array probe. The procedure, abridged: (§1)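 Binding buffer was PBS pH 7.4 with 2% milk, 0.02% Triton X-100, 1 mM DTT, 0.2 mg/mL BSA and 0.4 mg/ml salmon testes DNA. In it, ligand-free nuclear receptor dimers were incubated 1 h on custom Agilent 4×180K protein-binding microarrays carrying double-stranded probes. Antibodies against each partner (one per run) detected binding, and z-scores were calculated against random background probes after regression normalization of scanned fluorescence.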
PPARa:RXRa, sequence (Q07869 whole entry, chain 1 of 2): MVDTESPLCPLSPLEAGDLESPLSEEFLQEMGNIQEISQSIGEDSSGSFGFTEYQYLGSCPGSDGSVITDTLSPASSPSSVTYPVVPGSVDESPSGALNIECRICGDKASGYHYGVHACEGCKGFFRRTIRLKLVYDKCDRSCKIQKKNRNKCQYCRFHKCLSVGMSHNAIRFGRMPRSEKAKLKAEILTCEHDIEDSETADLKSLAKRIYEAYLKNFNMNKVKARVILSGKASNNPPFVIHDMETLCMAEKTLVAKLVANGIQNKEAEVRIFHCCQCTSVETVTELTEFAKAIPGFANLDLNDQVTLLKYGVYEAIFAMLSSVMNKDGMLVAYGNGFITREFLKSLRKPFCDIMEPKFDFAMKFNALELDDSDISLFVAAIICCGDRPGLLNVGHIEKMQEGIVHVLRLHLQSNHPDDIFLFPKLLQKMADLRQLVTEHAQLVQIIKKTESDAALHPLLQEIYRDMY
PPARa:RXRa, sequence (P19793 whole entry, chain 2 of 2): as the sequence (P19793 whole entry, chain 2 of 2) above
As to B1, the binding signal was 6.53 PBM z-score against 500 random probes.

In the case of B2, the binding signal is -0.77 PBM z-score against 500 random probes.

B3: the binding signal was 6.51 PBM z-score against 500 random probes.

In the case of B4, the binding signal was 3.44 PBM z-score against 500 random probes.

For B5, the binding signal was 0.45 PBM z-score against 500 random probes.

The target in the next data set is RARg:RXRa (Homo sapiens, UniProt P13631;P19793 full;full). The description is as above. Conditions: tags: His kept;His cleaved; copies: 1;1; label: surface-attached array probe. The gist of the method:
as §1
Regarding B6, the binding signal is 3.99 PBM z-score against 500 random probes.

As for B7, the binding signal was -0.37 PBM z-score against 500 random probes.

B8: the binding signal was -0.2 PBM z-score against 500 random probes.

Regarding B9, the binding signal is -0.21 PBM z-score against 500 random probes.

Turning to B10, the binding signal is 7.94 PBM z-score against 500 random probes.

The target of the next data set is RARb:RXRa (Homo sapiens, UniProt P10826;P19793 full;full). Described as above. Conditions: tags: His kept;His cleaved; copies: 1;1; label: surface-attached array probe. The procedure, abridged: as §1
RARb:RXRa, sequence (P10826 whole entry, chain 1 of 2): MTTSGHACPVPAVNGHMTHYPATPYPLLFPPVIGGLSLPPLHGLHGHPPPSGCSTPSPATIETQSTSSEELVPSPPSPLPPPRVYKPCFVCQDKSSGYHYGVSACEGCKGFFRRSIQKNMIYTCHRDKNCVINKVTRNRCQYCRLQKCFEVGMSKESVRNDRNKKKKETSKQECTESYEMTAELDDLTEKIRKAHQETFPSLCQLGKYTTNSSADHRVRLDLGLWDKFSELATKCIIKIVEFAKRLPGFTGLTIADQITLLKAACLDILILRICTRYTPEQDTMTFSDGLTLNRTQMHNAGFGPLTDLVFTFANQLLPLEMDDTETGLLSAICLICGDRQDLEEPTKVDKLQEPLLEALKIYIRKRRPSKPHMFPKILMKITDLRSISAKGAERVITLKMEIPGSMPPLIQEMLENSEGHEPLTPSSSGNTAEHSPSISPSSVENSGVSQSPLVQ
RARb:RXRa, sequence (P19793 whole entry, chain 2 of 2): as the sequence (P19793 whole entry, chain 2 of 2) above
Turning to B11, the binding signal is 5.58 PBM z-score against 500 random probes.

Take B12: the binding signal is 5.43 PBM z-score against 500 random probes.

As for B13, the binding signal is 3.13 PBM z-score against 500 random probes.

Consider B14, for which the binding signal was 5.77 PBM z-score against 500 random probes.

For the molecule B15, the binding signal was 6.08 PBM z-score against 500 random probes.

In the case of B16, the binding signal is 5.59 PBM z-score against 500 random probes.

For B17, the binding signal was 5.58 PBM z-score against 500 random probes.

Take B18: the binding signal is 5.56 PBM z-score against 500 random probes.

Turning to B19, the binding signal was 5.58 PBM z-score against 500 random probes.

As for B20, the binding signal was 5.82 PBM z-score against 500 random probes.

As for B21, the binding signal is 5.63 PBM z-score against 500 random probes.

Consider B22, for which the binding signal is 5.55 PBM z-score against 500 random probes.

Take B23: the binding signal is 5.53 PBM z-score against 500 random probes.

For B24, the binding signal is 5.46 PBM z-score against 500 random probes.

As for B25, the binding signal is 5.43 PBM z-score against 500 random probes.

In the case of B26, the binding signal was 5.55 PBM z-score against 500 random probes.

Take B27: the binding signal was 6 PBM z-score against 500 random probes.

As to B28, the binding signal is 5.54 PBM z-score against 500 random probes.

Another data set has as its target FXR:RXRa (Homo sapiens, UniProt Q96RI1;P19793 full;full). Described as above. Conditions: tags: His kept;His cleaved; copies: 1;1; label: surface-attached array probe. The gist of the method:
as §1
B6: the binding signal was 3.67 PBM z-score against 500 random probes.

Regarding B7, the binding signal is -0.44 PBM z-score against 500 random probes.

Take B1: the binding signal is 7.9 PBM z-score against 500 random probes.

As for B2, the binding signal was -0.46 PBM z-score against 500 random probes.

In the case of B3, the binding signal was 7.78 PBM z-score against 500 random probes.

On to B8, for which the binding signal is -0.43 PBM z-score against 500 random probes.

For the molecule B9, the binding signal is -0.55 PBM z-score against 500 random probes.

Take B4: the binding signal is 4.17 PBM z-score against 500 random probes.

Regarding B5, the binding signal was 0.31 PBM z-score against 500 random probes.

As for B10, the binding signal is 7.79 PBM z-score against 500 random probes.

Values taken from paper PMC6555819, “Comprehensive study of nuclear receptor DNA binding provides a revised framework for understanding receptor specificity”.
